Consider one molecule from patent US20090298769A1 (CLEVELAND CLINIC FOUNDATION, published 2009).

The target in the assay is T1, VEGFR-2 of human endothelial cells (HUVEC) (human, UniProt P35968 20-1356).
T1 construct: whole, on cells; Endogenous, detected in cell lysates or by staining; also called VEGF receptor-2
The experiment in a line: co-immunoprecipitation (anti-VEGFR-2 IP, anti-integrin β5 blot), HUVEC with or without VEGF.

T1 sequence (P35968 20-1356): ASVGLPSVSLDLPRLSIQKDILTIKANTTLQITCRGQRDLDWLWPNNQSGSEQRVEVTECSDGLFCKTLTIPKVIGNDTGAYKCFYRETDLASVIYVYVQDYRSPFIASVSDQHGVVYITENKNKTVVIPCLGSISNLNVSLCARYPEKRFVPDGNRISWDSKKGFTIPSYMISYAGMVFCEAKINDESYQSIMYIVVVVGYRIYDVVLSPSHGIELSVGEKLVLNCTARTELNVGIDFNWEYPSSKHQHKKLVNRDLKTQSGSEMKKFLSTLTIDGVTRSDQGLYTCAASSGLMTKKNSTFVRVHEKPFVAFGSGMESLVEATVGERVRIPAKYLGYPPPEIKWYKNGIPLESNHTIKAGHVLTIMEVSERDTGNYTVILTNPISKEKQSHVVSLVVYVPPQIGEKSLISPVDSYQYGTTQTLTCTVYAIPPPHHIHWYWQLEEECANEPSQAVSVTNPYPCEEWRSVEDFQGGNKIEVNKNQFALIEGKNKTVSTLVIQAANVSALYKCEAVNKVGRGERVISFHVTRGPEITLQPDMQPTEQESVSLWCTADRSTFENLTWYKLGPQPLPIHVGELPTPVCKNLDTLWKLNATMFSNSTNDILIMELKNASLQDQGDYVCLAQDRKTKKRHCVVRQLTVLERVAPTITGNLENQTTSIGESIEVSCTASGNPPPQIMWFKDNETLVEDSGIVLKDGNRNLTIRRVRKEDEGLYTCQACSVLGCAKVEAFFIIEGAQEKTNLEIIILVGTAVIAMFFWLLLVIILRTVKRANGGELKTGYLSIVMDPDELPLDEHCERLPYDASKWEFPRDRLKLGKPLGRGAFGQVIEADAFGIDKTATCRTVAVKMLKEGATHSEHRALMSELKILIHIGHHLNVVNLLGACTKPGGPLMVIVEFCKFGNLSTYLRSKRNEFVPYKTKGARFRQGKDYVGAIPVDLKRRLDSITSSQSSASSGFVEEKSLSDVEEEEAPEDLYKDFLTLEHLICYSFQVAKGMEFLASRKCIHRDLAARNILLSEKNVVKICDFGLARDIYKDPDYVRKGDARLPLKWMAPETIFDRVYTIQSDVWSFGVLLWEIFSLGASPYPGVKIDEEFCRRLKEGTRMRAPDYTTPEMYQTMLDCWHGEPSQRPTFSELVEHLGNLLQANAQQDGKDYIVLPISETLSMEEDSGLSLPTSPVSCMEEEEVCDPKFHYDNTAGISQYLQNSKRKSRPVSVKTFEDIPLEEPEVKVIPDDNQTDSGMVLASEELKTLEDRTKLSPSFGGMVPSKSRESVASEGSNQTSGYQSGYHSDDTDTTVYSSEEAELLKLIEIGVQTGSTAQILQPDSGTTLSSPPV

B1: β5 integrin of HUVEC (receptor, human, UniProt P18084 24-799, looked up)
chain: GLNICTSGSATSCEECLLIHPKCAWCSKEDFGSPRSITSRCDLRANLVKNGCGGEIESPASSFHVLRSLPLSSKGSGSAGWDVIQMTPQEIAVNLRPGDKTTFQLQVRQVEDYPVDLYYLMDLSLSMKDDLDNIRSLGTKLAEEMRKLTSNFRLGFGSFVDKDISPFSYTAPRYQTNPCIGYKLFPNCVPSFGFRHLLPLTDRVDSFNEEVRKQRVSRNRDAPEGGFDAVLQAAVCKEKIGWRKDALHLLVFTTDDVPHIALDGKLGGLVQPHDGQCHLNEANEYTASNQMDYPSLALLGEKLAENNINLIFAVTKNHYMLYKNFTALIPGTTVEILDGDSKNIIQLIINAYNSIRSKVELSVWDQPEDLNLFFTATCQDGVSYPGQRKCEGLKIGDTASFEVSLEARSCPSRHTEHVFALRPVGFRDSLEVGVTYNCTCGCSVGLEPNSARCNGSGTYVCGLCECSPGYLGTRCECQDGENQSVYQNLCREAEGKPLCSGRGDCSCNQCSCFESEFGKIYGPFCECDNFSCARNKGVLCSGHGECHCGECKCHAGYIGDNCNCSTDISTCRGRDGQICSERGHCLCGQCQCTEPGAFGEMCEKCPTCPDACSTKRDCVECLLLHSGKPDNQTCHSLCRDEVITWVDTIVKDDQEAVLCFYKTAKDCVMMFTYVELPSGKSNLTVLREPECGNTPNAMTILLAVVGSILLVGLALLAIWKLLVTIHDRREFAKFQSERSRARYEMASNPLYRKPISTHTVDFTFNKFNKSYNGTVD
notes: whole, on cells; also called integrin β5
As to B1, the binding result is recorded as “no binding”.
